Results taken from publication PMC8795117, “Structures and function of a tailoring oxidase in complex with a nonribosomal peptide synthetase module” (Nature Communications, 2022).
Where “and” joins values, the source holds several entries; their conditions need not be identical. Equal entries are not always repeated.

Molecular target: T1, BmdC (Thermoactinomyces vulgaris F-5595)
T1 construct: BmdC, FMN-dependent oxidase of the bacillamide pathway, Thermoactinomyces vulgaris F-5595 (WP_022737638.1); RREL domain, 45-residue loop, Ox domain (residues 142-325); Co-purifies with FMN; also called oxidase BmdC; dimeric BmdC; source: E. coli BL21(DE3), purified (IMAC, CBP column, TEV cleavage, gel filtration)
Assay: ITC; 600 μM BmdB A2 injected into 60 μM dimeric BmdC, 25 °C, 50 mM Tris-HCl pH 7.5, 200 mM NaCl, 1 mM TCEP; fitted with a binding model using a stoichiometry of 1; triplicate
Settings: both partners purified

Kd: ~75 nM and 44 to 118 nM
B1: BmdB_A2 (domain or fragment)
chain: YNATAEPIPAATLHQLFIDQAQRTPDQVAVVFEQEWLTYSELDQRSNQVARFLQSRGIGRGDRVGVLAKRQVETIINLMAVLKAGAAYVPIDPDHPYERQTYILENSSCKILLDSDLYETMEISSYADGDLTPVAEPEDTAYVIYTSGSTGRPKGVIITHQAASNTIQDINRKFEVNEEDRIIGISSMCFDLSVYDIFGTLSAGATLVMIRDPRDMRELVRTVERRGITIWNTVPAIMDLALDHVGSHFENISLRLVLLSGDWIPLPLPAKINRHFPVADVISLGGATEASIWSIYWPIEQVEANWKSIPYGKPLANQTYYVLNYDQKMCPVGVIGDLYIGGAGLAQGYLNDDQKTKDAFIMHPEFGPIYKTGDCGRMRPEGYIEFLGRQDYQVKIQGYRVELEEISHCLLTYPDVDQAVVIDQTDERGMKFLVGYVVAQQEIDEKALRKHLMEHLPEYMIPAHLVHLEQLPLTPNGKLDRKALPVPKKQRNAEKFV
